Results on two molecules are retold here after patent publication US20260098102A1 (NATIONAL UNIVERSITY CORPORATION KOBE UNIVERSITY, published 2026).

One experiment concerns the target T1, human SIRPA_V1 protein (human, UniProt P78324 31-504).
T1 construct: Expressed on 293α cells from pcDNA3.2 V5-DEST or pFLAG V5-DEST (FLAG-tagged) vectors; also called human SIRPA Variant 1; hSIRPA V1
In words: blocking cell-based ELISA: peroxidase-labeled CD47-Fc (1 µg/mL) on 293α cells expressing SIRPA_V1. How it is done: After the culture supernatant of the human SIRPA_V1 or V2 expression vector-introduced 293 cells prepared in Example 9)-1 was removed, 50 μL per well of various anti-SIRPA antibodies or various control Human IgG diluted with 5% FBS-containing PBS to a final concentration of 0 to 10,000 ng/ml was added to each of pcDNA3.2 V5-DEST-SIRPA_V1 or V2-introduced 293α cells, immediately followed by addition of 50 µL per well of peroxidase-labeled CD47-Fc prepared with 5% FBS-containing PBS at 1 μg/mL, and the mixture was allowed to stand at 4° C. for one hour. Thereafter, the SIRPA-CD47 binding inhibitory activity was evaluated in the same manner as in 1)-6-3.
On the technique in general: An ELISA detects its analyte on a solid surface through an enzyme-linked reagent.

The target of a further experiment is T2, human SIRPB (human, UniProt O00241 30-398).
T2 construct: whole, on cells; FLAG-tagged (pFLAG V5-DEST), on CHO-K1 cells; also called SIRPβ1; signal regulatory protein β1
T2 sequence (O00241 30-398): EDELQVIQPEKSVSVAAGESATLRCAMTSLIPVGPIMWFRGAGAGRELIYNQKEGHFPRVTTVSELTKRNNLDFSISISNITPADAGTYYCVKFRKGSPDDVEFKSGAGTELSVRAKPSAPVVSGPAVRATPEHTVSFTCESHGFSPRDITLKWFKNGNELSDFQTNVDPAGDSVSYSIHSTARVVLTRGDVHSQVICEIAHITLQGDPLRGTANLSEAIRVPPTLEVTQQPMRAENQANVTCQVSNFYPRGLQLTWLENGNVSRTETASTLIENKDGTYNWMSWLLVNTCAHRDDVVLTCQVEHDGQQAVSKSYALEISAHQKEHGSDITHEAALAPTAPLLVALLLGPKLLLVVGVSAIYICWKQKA
As to the kind of experiment: flow cytometry on CHO-K1 cells expressing FLAG-tagged human SIRPB; PE anti-human IgG; MFI standardized to secondary antibody alone. How it is done: SIRPβ1 (signal regulatory protein β1: the amino acid sequence thereof is published as RefSeq accession number NP_006056) and SIRPγ (signal regulatory protein γ: the amino acid sequence thereof is published as RefSeq accession number NP_061026) are molecules belonging to the SIRPA family. In the present invention, “SIRPα” may be referred to as “SIRPA,” “SIRPβ1” may be referred to as […] and “SIRPγ” may be referred to as “SIRPG.” CHO-K1 cells were prepared in a 10% FBS-containing Ham's F-12K medium at 3.3×10⁵ cells/mL and cultured overnight at 37° C. under a 5% CO₂ condition. pFLAG V5-DEST-human SIRPβ, pFLAG V5-DEST-human SIRPG, or pFLAG V5-DEST was introduced into the cells using Lipofectamine LTX (Invitrogen), and cells were cultured in a 10% FBS-containing Ham's F-12K medium at 37° C. under a 5% CO₂ condition for 24 hours. The obtained introduced cells were collected and seeded on a 96-well plate. After the culture supernatant was removed, 100 μL per well of various anti-human SIRPA antibodies or various control human IgG was added to each of various gene introduced cells at a final concentration of 0 to 10,000 ng/mL, and the mixture was allowed to stand at 4° C. for 25 minutes. After the mixture was centrifuged, the supernatant was removed, and cells were washed twice with 5% FBS-containing PBS. After the mixture was centrifuged, the supernatant was removed, 50 μL per well of a 1/400 diluted solution of PE Mouse anti-Human IgG antibody (BioLegend) was added, and the mixture was allowed to stand at 4° C. for 25 minutes. After the mixture was centrifuged, the supernatant was removed, and cells were washed twice with 5% FBS-containing PBS.
(§1) After the mixture was centrifuged, and the supernatant was removed, cells were suspended in 100 μL per well of 1× BD Stabilizing Fixative (Becton Dickinson), and the cell count was measured by flow cytometry (FACS Canto II: Becton Dickinson). For data analysis, FlowJo (TreeStar) was used. Cells were characterized by detecting forward scattered (FSC) light and side-scattered (SSC) light, and then the mean fluorescence intensity of PE was calculated. Binding of various antibodies to the family molecules was calculated by standardizing the fluorescence intensity using the mean fluorescence intensity of a sample in which the secondary antibody alone was allowed to react.
On the technique in general: A flow cytometer gives signals particle by particle.

A further experiment deals with T3, SIRPA_V1_IgV (human, UniProt P78324 31-149).
T3 construct: Secreted recombinant protein from FreeStyle 293F cells
T3 sequence (P78324 other isoform, or with tags, fused parts or gaps limits assumed): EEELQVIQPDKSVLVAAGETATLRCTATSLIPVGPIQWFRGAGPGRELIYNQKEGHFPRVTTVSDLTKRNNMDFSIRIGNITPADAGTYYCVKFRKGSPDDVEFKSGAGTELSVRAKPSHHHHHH
As to the kind of experiment: SPR Biacore T200, antibody captured on anti-human IgG (Fc), SIRPA_V1_IgV as analyte (0.25 to 16 nM), 1:1 model. How it is done:
The dissociation constants were measured by a capture method comprising capturing each antibody as a ligand to an Anti-Human IgG (Fc) antibody immobilized using Human Antibody Capture Kit (GE Healthcare Bioscience Corp.) and measuring an antigen as an analyte, using Biacore T200 (GE Healthcare Bioscience Corp.). HBS-EP+ (GE Healthcare Bioscience Corp.) was used as a running buffer, and CM5 (GE Healthcare Bioscience Corp.) was used as a sensor chip. Onto the chip, 2 μg/mL of various antibodies were added at 10 μL/min for 30 seconds, then a serially diluted solution (0.25 to 16 nM) of the human SIRPA protein as an antigen was added at a flow rate of 30 μL/min for 120 seconds, and subsequently the dissociation phase for 600 seconds was monitored. As a regenerant, 3 M magnesium chloride (GE Healthcare Bioscience Corp.) was added at a flow rate of 20 μL/min for 30 seconds. For data analysis, a binding rate constant (ka), a dissociation rate constant (kd), and a dissociation constant (KD; KD=kd/ka) were calculated using a 1:1 binding model.

A further experiment has as its target T4, human SIRPG (human, UniProt Q9P1W8 29-387).
T4 construct: whole, on cells; FLAG-tagged (pFLAG V5-DEST), on CHO-K1 cells; also called SIRPγ; signal regulatory protein γ
In words: flow cytometry on CHO-K1 cells expressing FLAG-tagged human SIRPG; PE anti-human IgG; MFI standardized to secondary antibody alone. The protocol:
SIRPβ1 (signal regulatory protein β1: the amino acid sequence thereof is published as RefSeq accession number NP_006056) and SIRPγ (signal regulatory protein γ: the amino acid sequence thereof is published as RefSeq accession number NP_061026) are molecules belonging to the SIRPA family. In the present invention, “SIRPα” may be referred to as “SIRPA,” “SIRPβ1” may be referred to as […] and “SIRPγ” may be referred to as “SIRPG.” CHO-K1 cells were prepared in a 10% FBS-containing Ham's F-12K medium at 3.3×10⁵ cells/mL and cultured overnight at 37° C. under a 5% CO₂ condition. pFLAG V5-DEST-human SIRPβ, pFLAG V5-DEST-human SIRPG, or pFLAG V5-DEST was introduced into the cells using Lipofectamine LTX (Invitrogen), and cells were cultured in a 10% FBS-containing Ham's F-12K medium at 37° C. under a 5% CO₂ condition for 24 hours. The obtained introduced cells were collected and seeded on a 96-well plate. After the culture supernatant was removed, 100 μL per well of various anti-human SIRPA antibodies or various control human IgG was added to each of various gene introduced cells at a final concentration of 0 to 10,000 ng/mL, and the mixture was allowed to stand at 4° C. for 25 minutes. After the mixture was centrifuged, the supernatant was removed, and cells were washed twice with 5% FBS-containing PBS. […]
as §1, with “For data analysis, FlowJo (TreeStar) was used.” left out

Another experiment addresses T5, monkey SIRPA protein (cynomolgus monkey, UniProt P78324 31-504 (human entry)).
T5 construct: Expressed on 293α cells from pcDNA3.2 V5-DEST or pFLAG V5-DEST vectors; also called cynomolgus monkey SIRPA; cSIRPA
T5 chain: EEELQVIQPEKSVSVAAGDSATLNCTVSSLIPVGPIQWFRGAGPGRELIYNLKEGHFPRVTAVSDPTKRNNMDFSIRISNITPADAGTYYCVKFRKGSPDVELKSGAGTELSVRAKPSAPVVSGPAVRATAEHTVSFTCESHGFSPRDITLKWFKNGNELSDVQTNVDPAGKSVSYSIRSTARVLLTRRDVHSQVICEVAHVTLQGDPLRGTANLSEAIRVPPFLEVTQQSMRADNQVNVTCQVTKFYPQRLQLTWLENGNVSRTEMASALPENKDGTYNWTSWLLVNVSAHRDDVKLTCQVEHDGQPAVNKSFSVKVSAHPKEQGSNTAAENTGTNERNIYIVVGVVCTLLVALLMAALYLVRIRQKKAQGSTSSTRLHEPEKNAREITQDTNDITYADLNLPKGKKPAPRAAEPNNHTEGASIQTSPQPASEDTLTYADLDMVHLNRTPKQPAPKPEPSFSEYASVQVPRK
In words: cell-based ELISA on 293α cells expressing FLAG-tagged monkey SIRPA; Abs 490 normalized to FLAG tag.

T1 sequence (P78324 31-504 limits assumed): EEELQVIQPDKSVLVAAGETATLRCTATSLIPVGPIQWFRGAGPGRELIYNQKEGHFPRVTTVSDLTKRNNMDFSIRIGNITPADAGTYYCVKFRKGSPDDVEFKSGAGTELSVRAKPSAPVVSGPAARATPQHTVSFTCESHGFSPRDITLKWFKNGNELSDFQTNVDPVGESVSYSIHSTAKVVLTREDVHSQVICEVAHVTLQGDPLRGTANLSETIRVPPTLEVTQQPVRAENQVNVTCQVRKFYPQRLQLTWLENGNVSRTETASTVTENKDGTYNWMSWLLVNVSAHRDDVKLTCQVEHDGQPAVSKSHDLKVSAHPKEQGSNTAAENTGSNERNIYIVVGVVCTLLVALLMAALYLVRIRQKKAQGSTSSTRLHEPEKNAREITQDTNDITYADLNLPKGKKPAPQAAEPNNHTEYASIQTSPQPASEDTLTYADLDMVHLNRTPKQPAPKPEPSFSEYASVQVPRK
T4 sequence (Q9P1W8 29-387): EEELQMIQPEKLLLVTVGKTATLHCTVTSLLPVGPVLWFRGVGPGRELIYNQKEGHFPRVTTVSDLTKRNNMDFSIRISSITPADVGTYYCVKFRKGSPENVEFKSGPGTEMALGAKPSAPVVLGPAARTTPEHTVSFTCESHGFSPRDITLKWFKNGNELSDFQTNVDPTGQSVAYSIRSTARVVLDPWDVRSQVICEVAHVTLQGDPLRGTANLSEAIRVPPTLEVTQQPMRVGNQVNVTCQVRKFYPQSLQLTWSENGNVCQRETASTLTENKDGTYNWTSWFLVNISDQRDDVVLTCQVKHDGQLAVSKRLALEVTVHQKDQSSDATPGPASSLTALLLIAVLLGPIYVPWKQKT

B1: humanized anti-SIRPA antibody hD13_H1L3 (antibody, human IgG4 S228P, kappa, F234A L235A, V domains shown)
VH: QVQLVESGGGVVQPGRSLRLSCAASGFTFSDYGMIWVRQAPGKGLEWVASISSSSSYIYYADSVKGRFTISRDNSKNRLYLQMNSLRAEDTAVYYCARRYYGFNYPFDYWGQGTMVTVSS
VL: DTQLTQSPSSLSASVGQRVTITCGASKSVRTYMHWYQQKPGKQPKLLIYSASNLEAGVPSRFSGSGSGTDFTLTISSLQPEDFATYYCQQSNEPPYTFGQGTKLEIKR
notes: hH1 heavy chain (IgG4proFALA) and hL3 kappa light chain; also called hD13_HIL3; HIL3 antibody
As for B1, in the experiment with human SIRPA_V1 protein, the half-inhibitory concentration (IC50) (commonly the concentration that gives 50% inhibition) was 1.58 µg/mL. The “EC50 (read off the curve)” value with human SIRPB and with human SIRPG was approximately 30 ng/mL each time. For the same molecule, in the experiment with SIRPA_V1_IgV, the Kd (commonly the constant that tells how readily two partners part at equilibrium) is 0.252 nM.

B2: human chimeric anti-SIRPA antibody cD13 (antibody, human IgG4 S228P, kappa, F234A L235A, V domains shown)
VH: EVQLVESGGGLVQPGRSLKLSCLASGFTFSDYGMIWVRQAPGKGLEWVASISSSSSYIYYADTVKGRFTISRENAKNTLFLHMTSLRSEDTALYYCARRYYGFNYPFDYWGQGVMVTVSS
VL: DTVLTQSPALAVSLGQRVTISCGASKSVRTYMHWYQQKSGQQPKLLIYSASNLEAGVPSRFSGSGSGTDFTLTIDPVEADDIANYYCQQSNEPPYTFGAGTKLELKR
notes: Human IgG4proFALA heavy chain, human kappa light chain; also called cD13 (IgG4pf); human chimeric antibody D13
B2: in the experiment with monkey SIRPA protein, the EC50 (read off the curve) (as a rule, the concentration giving half of the maximal effect) was approximately 100 ng/mL.
